# Results published in the supplement of paper PMC10724198.
# ± gives the standard deviation of the averaged measurements.
# Test system: Saccharomyces cerevisiae
# Experiment: protein stability index of tFT-peptide fusion (C-terminal peptide) (PSI (0-1 scale)); higher = more stable (slower turnover)
# Conditions: genetic background: wild type; temperature: 30 C
# Experimental: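 Multiplexed protein stability (MPS) profiling in S. cerevisiae. Random 12-aa peptides (tFT-X12 library) are fused to the C-terminus of a sfGFP-mCherry tandem fluorescent timer, after mCherry and a GGGS linker. Cells are FACS-sorted into 8 mCherry/sfGFP bins and deep-sequenced. The protein stability index (PSI) is the read-weighted bin average, scaled from 0 (unstable) to 1 (stable). Only peptides with >10 reads are reported; cells were grown at 30 °C in SC-His with glucose.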
# 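Also: PSI is a weighted mean of sequencing reads over stability bins, variants kept only with over 10 reads, mCherry proximal and sfGFP distal, peptide attached via GGGS linker.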
row,Sequence,protein stability index
1,CWASTFGLGFLP,0.757 ± 0.0022
2,CWCRVGSSGCVR,0.668 ± 0.039
3,CWGAGPRLVRVW,0.4998 ± 0.00039
4,CWLGSIAGLRGR,0.7399 ± 0.0064
5,CWPLITTNCTVP,0.7081 ± 0.0054
6,CYRWVLGVDARV,0.649 ± 0.012
7,DAMSTRSRLLTR,0.7109 ± 0.0051
8,DASCAPAQYLPI,0.673 ± 0.025
9,DASGGKKVSRGT,0.571
10,DCCTGGKCLEVW,0.603 ± 0.047
11,DCMSSVFQSPPG,0.693 ± 0.01
12,DCSCCGGVSCVV,0.639 ± 0.014
13,DCVWGLERVLLL,0.756 ± 0.016
14,DCWAGWGLCGGG,0.723 ± 0.042
15,DDIGGRKLCVRG,0.6692 ± 0.0028
16,DEKKMEKQTNRT,0.638 ± 0.045
17,DENEKIKKVKVK,0.754 ± 0.02
18,DERVSAQDFLEG,0.6873 ± 0.003
19,DEWAGKYLKTIA,0.702 ± 0.013
20,DFILVRGWADLR,0.616 ± 0.059
21,DFKHKYREKKKF,0.615 ± 0.062
22,DFLCHFCVIDEC,0.653 ± 0.066
23,DFSLRCIAIPRV,0.651 ± 0.046
24,DFVGCSGRGSFV,0.72 ± 0.023
25,DGASAARQGGAR,0.7171 ± 0.00082

row,Sequence,protein stability index
1,DGCLMEHSMQVG,0.656 ± 0.035
2,DGCRLGDFLNRV,0.66 ± 0.042
3,DGGHSFLSVARG,0.644 ± 0.04
4,DGGSGQGMLGGS,0.628 ± 0.043
5,DGGVGGRAPRVR,0.744 ± 0.097
6,DGKTKKKTRSLR,0.652 ± 0.034
7,DGRMGAGVAGTG,0.636 ± 0.069
8,DGRRRHCYTITA,0.661 ± 0.031
9,DGSMRKWGQGVG,0.575 ± 0.067
10,DHGRLFSNILIS,0.645 ± 0.028
11,DHRGSIWWAGSG,0.702 ± 0.0034
12,DIERRMEVINNG,0.696 ± 0.032
13,DIGSSGRVGGLG,0.712 ± 0.031
14,DIRGGDMGEWRE,0.683 ± 0.023
15,DIVSGGLCVEVL,0.643 ± 0.033
16,DIVVGANISSIN,0.641 ± 0.02
17,DKACVHPRTVTG,0.703 ± 0.07
18,DKATGARGKPPR,0.649 ± 0.13
19,DKDWDHGSLCIP,0.692 ± 0.074
20,DKKATTSIGIKK,0.642 ± 0.07
21,DKLDKKTLYLRK,0.729 ± 0.061
22,DKSEINKPTKGK,0.675 ± 0.021
23,DKSIGIYIVRSH,0.731 ± 0.012
24,DKVIIRKLRTSK,0.6863 ± 0.0051
25,DKVKILVGVAGW,0.607 ± 0.036

row,Sequence,protein stability index
1,DKVLQSLALKCK,0.508 ± 0.0074
2,DLASPIFSRFSS,0.687 ± 0.036
3,DLCITNTMLFYL,0.7025 ± 0.006
4,DLGPLFVSWSTW,0.778 ± 0.021
5,DLIRIRHACGFL,0.663 ± 0.048
6,DLPYLYPRCLIS,0.72683 ± 0.00028
7,DLSDGHFSTASP,0.678 ± 0.0069
8,DLTQHRQHKPQK,0.735 ± 0.043
9,DPFFPPYTPSPS,0.782 ± 0.049
10,DPFYRNFARREA,0.738 ± 0.026
11,DPGTNGGCAPPV,0.676 ± 0.0014
12,DPKNEINAKENI,0.689 ± 0.069
13,DPPLPAHPDVPP,0.771 ± 0.086
14,DPQRQDVFRVSE,0.6823 ± 0.0021
15,DPRPHPPFARSP,0.699 ± 0.026
16,DPRSPLSHSFLR,0.706 ± 0.044
17,DPWGGTGKGHWG,0.679 ± 0.0056
18,DQATEPTPKPPD,0.643 ± 0.0079
19,DQSSTIYKIIKE,0.672 ± 0.045
20,DRCSRFRCFFVG,0.6 ± 0.031
21,DRLGGDWMERGG,0.688 ± 0.032
22,DRPWAGGGLGVC,0.621 ± 0.081
23,DRRLGKHEYQPY,0.737 ± 0.022
24,DRRLPVSPPTIV,0.774 ± 0.12
25,DRRQLSVVARRT,0.648 ± 0.027

row,Sequence,protein stability index
1,DRRRGMVRKTHV,0.659 ± 0.019
2,DRRVSYKKKKRK,0.672 ± 0.14
3,DRSRWMVVRGGG,0.648 ± 0.13
4,DSCGVFLGDFFQ,0.727 ± 0.026
5,DSDGILTEPTSW,0.707 ± 0.0094
6,DSDSVMPFERLM,0.659 ± 0.0095
7,DSFDLPCLFKVP,0.659 ± 0.078
8,DSHDMSQDLFVN,0.767 ± 0.039
9,DSIALNKDVFWW,0.773 ± 0.02
10,DSLTKYSAKEYR,0.5777 ± 0.0052
11,DSNTAGLTRDIA,0.645 ± 0.015
12,DSQSRRFDRSRN,0.671 ± 0.076
13,DSVRGNDSGSGL,0.7245 ± 0.0064
14,DTHESELNQLNG,0.6902 ± 0.0032
15,DTPERKGNLEEH,0.709 ± 0.053
16,DVGWRATGVLGG,0.7106 ± 0.0052
17,DVGWRVFVFGGL,0.704 ± 0.038
18,DVLSPRPSPLPS,0.665 ± 0.0093
19,DVRSGRAVVGGW,0.63 ± 0.051
20,DWYLVGGRVFWV,0.721 ± 0.015
21,DYLDYPSYNDLT,0.599 ± 0.038
22,DYRKGDVETPFV,0.677 ± 0.032
23,DYVVHSGTYGPK,0.687 ± 0.021
24,EAIGGVPASSRP,0.661 ± 0.0091
25,EALTTAATRYGP,0.651 ± 0.0068

row,Sequence,protein stability index
1,EARMGVGRCGTG,0.661 ± 0.022
2,EARRHTKHPGKI,0.753 ± 0.066
3,EASGPGPGAKAT,0.6526 ± 0.0026
4,EATGSLISFCGW,0.665 ± 0.068
5,EAVCHQFVELIG,0.605 ± 0.02
6,ECESGKFSLGGT,0.68 ± 0.02
7,ECGLGGCGGLGV,0.705 ± 0.03
8,ECTTTWLVPQHL,0.655 ± 0.015
9,ECYKKFVCSCCT,0.515 ± 0.0086
10,EDFCMVEQPGVE,0.7012 ± 0.0054
11,EDILWADVPYSK,0.759 ± 0.039
12,EDRSITYNALIL,0.678 ± 0.013
13,EDRTQEIQNIHD,0.686 ± 0.012
14,EDSGRPGRPSTH,0.662 ± 0.048
15,EDYERETRKICK,0.717 ± 0.038
16,EEGGQGITIEES,0.686 ± 0.12
17,EEGGVWIRVEAG,0.588 ± 0.019
18,EEGKSTREKEGG,0.685 ± 0.036
19,EEMEKRNREKEL,0.691 ± 0.094
20,EENGAGVSVGKL,0.653 ± 0.0085
21,EETRRKKRTGKK,0.707 ± 0.0099
22,EEVKRKSGGKSK,0.662 ± 0.027
23,EGCYGVRGNTLH,0.612 ± 0.017
24,EGDGLVWGGQGG,0.691 ± 0.0078
25,EGEGQGWGGQGG,0.6994 ± 0.0021

row,Sequence,protein stability index
1,EGEVGGVVLPRI,0.696 ± 0.04
2,EGGERERGNRER,0.7176 ± 0.0069
3,EGGLKIRRSRDE,0.657 ± 0.024
4,EGGRGGGRGVVG,0.67 ± 0.027
5,EGIVRYRKRGSR,0.665 ± 0.015
6,EGKKKKKGNRPK,0.676 ± 0.081
7,EGKWCGVKRGVY,0.627 ± 0.033
8,EGPTRIKRGRSG,0.685 ± 0.031
9,EGQARRAGRQGR,0.7349 ± 0.0053
10,EGSGEGEEAGGV,0.6497 ± 0.0047
11,EGSGLVVANAYP,0.667 ± 0.022
12,EGVAGEWRGMEM,0.65 ± 0.014
13,EGWVVYFEEDLE,0.735 ± 0.017
14,EHKVQTTTNQKE,0.697 ± 0.011
15,EHQNHNTARKRH,0.69835 ± 0.00027
16,EIGGYHLGWAKC,0.636 ± 0.022
17,EIIEINNVKRIK,0.6835 ± 0.0049
18,EIKGKLQEGRMD,0.75 ± 0.021
19,EINEKPGINKKI,0.6587 ± 0.0028
20,EIVKAHKVKKRK,0.7166 ± 0.0045
21,EIYARVQERLKI,0.617 ± 0.016
22,EKDRAVGAAKAA,0.631 ± 0.12
23,EKERRATCPGRK,0.652 ± 0.051
24,EKESERGREKDS,0.747 ± 0.12
25,EKIKKTEKNKNK,0.6755 ± 0.0042

row,Sequence,protein stability index
1,EKKEGEREKQED,0.751 ± 0.15
2,EKKKKKKEEREK,0.728 ± 0.16
3,EKKKKKPKKKRK,0.687 ± 0.026
4,EKKKKKTAKQLK,0.671 ± 0.085
5,EKKKKTKKEKKK,0.677 ± 0.0082
6,EKKLKNEEKKEI,0.717 ± 0.04
7,EKLRGRKKGELQ,0.668 ± 0.036
8,EKQICKVVKIKE,0.777 ± 0.048
9,EKRAKKKVKIII,0.62 ± 0.035
10,EKRDEGAGKGEQ,0.63 ± 0.014
11,EKSQMPPAPAPK,0.703 ± 0.04
12,EKVASLVTIFDM,0.695 ± 0.024
13,ELASLSPCCMGM,0.762 ± 0.15
14,ELDFVVNKIQDW,0.828 ± 0.096
15,ELFGGQRLARNY,0.637 ± 0.057
16,ELTLTVFQVGEE,0.602 ± 0.025
17,ELVGRRAFRASR,0.693 ± 0.12
18,ENANWHSKNMSK,0.723 ± 0.071
19,ENEKKKKNKNKN,0.7 ± 0.049
20,ENIENGRPKTEP,0.644 ± 0.012
21,ENKTNKEKQQKQ,0.691 ± 0.012
22,EPCIVCPMSRQG,0.773 ± 0.11
23,EPGGSKRSGGRL,0.686 ± 0.03
24,EPWTEQPKLDSR,0.936 ± 0.091
25,EPYHYAWTQRSW,0.698 ± 0.015

row,Sequence,protein stability index
1,EQKVRSPIEMML,0.591 ± 0.0064
2,EQQLSHENMQFK,0.68 ± 0.01
3,EQRRAGPAEVTK,0.694 ± 0.04
4,EQSWAIQKVRQG,0.737 ± 0.025
5,ERARGGRGVGGN,0.678 ± 0.033
6,ERARGKGAGKAE,0.688 ± 0.019
7,ERERQREKEKLK,0.6735 ± 0.0038
8,ERFRWRRNRSLG,0.672 ± 0.16
9,ERGEEESGRSGS,0.7225 ± 0.0046
10,ERGGWGVGSEVG,0.719 ± 0.03
11,ERGKRSTEWARK,0.681 ± 0.042
12,ERGRRPAGGGEK,0.719 ± 0.028
13,ERIGVEERKGLE,0.658 ± 0.021
14,ERKDPNTNKVKS,0.678 ± 0.0083
15,ERKKKKKERARG,0.767 ± 0.1
16,ERNKKKNNQVNK,0.619 ± 0.054
17,ERNNTICREIIE,0.686 ± 0.026
18,ERRELSAHVYLD,0.665 ± 0.1
19,ERRGGRKGRGRE,0.662 ± 0.02
20,ERRGSLSWPIPP,0.722 ± 0.036
21,ERSKTMVAGGEE,0.686 ± 0.062
